One data set deals with T1, PD-L1 (Homo sapiens, UniProt Q9NZQ7).
T1 construct: their tumor was also tested for PD-L1 expression and found to be positive; endogenous in cells; host or cells: tumour cells and immune cells (macrophages/monocytes) of a patient with metastatic lung adenocarcinoma
Put plainly: Phase 1 study of MPDL3280A in a patient with metastatic lung adenocarcinoma. The class given is in vivo. How it is done: The patient also consented to enroll on a phase 1 multicenter open-label dose-escalation study to evaluate the safety, tolerability, and pharmacokinetics of MPDL3280A (DF/HCC Protocol 11-314; NCT#01375842). […] As part of the inclusion criteria, their tumor was also tested for PD-L1 expression and found to be positive. The drug was administered as a single agent at a dose of 20 mg/kg every 3 weeks. […] Tumor response and evaluation was performed by physical examination and serial chest/abdomenipelvic CT scans, and target lesions were evaluated using RECIST criteria. Following treatment discontinuation at 1 year, the patient has continued to be monitored every 3 months by examination and CT scans.
Thus, after a temporary decline, the patient subsequently received sixteen cycles of MPDL3280A over a one-year period. […] They completed one year of therapy per protocol and remained without evidence of disease progression for an additional 12 months. At this point, they began to lose weight again and developed regrowth of the right adrenal mass (FIG. 1D), leading to re-initiation of MPDL3280A therapy.

Data set [1] relates to CD4+ T cells and CD8+ T cells. Put plainly: T cell proliferation assay, monocytes from blood pre- and 1 h post-MPDL3280A infusion. The settings on record: in the presence of circulating MPDL3280A (1 h post- vs pre-infusion), especially with monocytes primed with IFNγ. The data set is classed as cell-based, human. Here is the method:
PBMCs were isolated from patient blood samples immediately pre- and 1 h post-treatment with MPDL3280A, as well as from a normal donor by Ficoll and plated in a density of 4×10^6 cells/ml to a 96-well plate. After 2 h at 37° C. non-adherent cells (lymphocyte portion) were removed by pipetting and remaining adherent cells (monocyte portion) were cultured with or without 250 ng/ml IFNγ. At 24 h, non-adherent lymphocytes were labeled with CFSE. Monocytes (IFNγ treated or untreated) were harvested by 5 mM EDTA treatment and resuspended in fresh medium. Both lymphocytes and monocytes were then plated to a 96-well plate pre-coated with 10 μg/ml OKT3 antibody. Proliferation of CD4+ T cells and CD8+ T cells were monitored at 72 h post-stimulation by CSFE dilution.

Data set [2] can be described thus: Chemotherapy of the patient before MPDL3280A. The data set is classed as in vivo, human. The conditions noted are these: one patient, single cycle. An excerpt: He then developed a perirectal abscess and was switched to dose-reduced carboplatin and pemetrexed, together with bevacizumab for three additional cycles and was transitioned to maintenance pemetrexed and bevacizumab.

[3] abbreviates: one patient, sixteen cycles over one year.

Here are results for two substances from US20170115291A1, “Activating JAK Kinase Biomarkers Predictive of Anti-Immune Checkpoint Inhibitor Response” (Dana-Farber Cancer Institute, Inc., priority 2014, published 2017).

T1 sequence (Q9NZQ7 19-290): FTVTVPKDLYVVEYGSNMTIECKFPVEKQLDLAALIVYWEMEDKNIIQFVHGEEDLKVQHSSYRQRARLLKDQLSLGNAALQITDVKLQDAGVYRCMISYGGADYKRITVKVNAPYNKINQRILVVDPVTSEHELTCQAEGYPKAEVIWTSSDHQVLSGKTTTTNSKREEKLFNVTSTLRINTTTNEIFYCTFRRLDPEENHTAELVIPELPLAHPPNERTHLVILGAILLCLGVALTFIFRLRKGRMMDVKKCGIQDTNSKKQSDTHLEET

Take “MPDL3280A: an engineered anti-PDL1 antibody (Genentech)”: the “Time without evidence of disease progression after completing one year of therapy” value with PD-L1 (off therapy) was 12 months. Moreover, the Tolerability entry in the data set with PD-L1 (one patient, 20 mg/kg every 3 weeks, 16 cycles) is “tolerated well other than a mild flare of their underlying chronic obstructive pulmonary disease”. Also, in the data set with PD-L1 (one patient, 20 mg/kg every 3 weeks, sixteen cycles over a one-year period), the “Tumor response by RECIST criteria” value was “partial response”. In the data set with PD-L1 (one patient, FIG. 1 panel C), the “Size of the paratracheal mass on serial chest CT scans” value was “reduction in size”. In addition, the “Right adrenal lesion on restaging scans after re-initiation of therapy” value in the data set with PD-L1 (one patient, after another 3 months of MPDL3280A) is “rapid improvement”. Besides, in the data set with PD-L1 (setting [3]), the Body weight entry is listed as “return to pre-diagnosis body weight”, the Narcotic pain medication result is “discontinuation of all narcotic pain medication” and the Symptoms entry is recorded as “complete resolutions of their symptoms”. The “T cell activation (proliferation of autologous or allogeneic CD4+/CD8+ T cells)” value in data set [1] is “significantly greater”.
As to carboplatin and paclitaxel, the Tolerability entry in data set [2] was “tolerated poorly”.
